In the supplement of paper PMC7877785:
± gives the uncertainty stated by the source.

Assay: self-splicing fitness, log relative to wild type (ln ratio); higher = more splicing; Tetrahymena group I intron in knt gene, E. coli kanamycin selection, DiMSum; sequences stand for … in CUCUCU…GGAGGGAAAAGUUAUCAGGCAUGCACCUGGUAGCUAGUCUUUAAACCAAUAGAUUGCAUCGGUUUAAAAGGCAAGACCGUCAAAUUGCGGGAAAGGGGUCAACAGCCGUUCAGUACCAAGUCUCAGGGGAAACUUUGAGAUGGCCUUGCAAAGGGUAUGGUAAUAAGCUGACGGACAUGGUCCUAACCACGCAGCCAAGUCCUAAGUCAACAGAUCUUCUGUUGAUAUGGAUGCAGUUCACAGACUAAAUGUCGGUCGGGGAAGAUGUAUUCUUCUCAUAAGAUAUAGUCGGACCUCUCCUUAAUGGGAGCUAGCGGAUGAAGUGAUGCAACACUGGAGCCGCUGGGAACUAAUUUGUAUGCGAAAGUAUAUUGAUUAGUUUUGGAGUACUCGUGGUCG
In short: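 DiMSum derived fitness as the error-weighted combination of fold changes across replicates, kanamycin versus no kanamycin, normalised to wild type. E. coli BL21(DE3) held the library, which randomised all eight P1ex-region intron nucleotides within the knt kanamycin-resistance gene on pET-22b(+). Six replicate transformations grew overnight at 37°C or 30°C on LB agar with or without 25 μg/mL kanamycin, also containing 100 μg/mL carbenicillin, 50 μM IPTG and 0.2% rhamnose, and pooled colonies were amplicon-sequenced on an Illumina HiSeq 2500.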

| Sequence | self-splicing fitness (ln) (30 °C) | self-splicing fitness (ln) (37 °C) |
| --- | --- | --- |
| UUCCAGCAAUAUUACGUAUC | -1.29 ± 0.15 | -2.83 ± 0.34 |
| UUCCAGCAAUAUUACGUGCA | -1.44 ± 0.1 | -1.11 ± 0.087 |
| UUCCAGCAAUAUUACGUUCC |  | -1.84 ± 0.42 |
| UUCGAGCAAUAUUACGAGCA | -1.41 ± 0.16 | -0.946 ± 0.15 |
| UUCGAGCAAUAUUACGAUAC | -3.34 ± 0.23 | -3.26 ± 0.26 |
| UUCGAGCAAUAUUACGAUAG | -2.73 ± 0.44 | -1.77 ± 0.25 |
| UUCGAGCAAUAUUACGAUUG |  | -2.52 ± 0.34 |
| UUCGAGCAAUAUUACGCGGU | -3.26 ± 0.2 | -1.17 ± 0.2 |
| UUCGAGCAAUAUUACGCUAA | -2.91 ± 0.29 | -1.61 ± 0.17 |
| UUCGAGCAAUAUUACGCUCA | -2.23 ± 0.25 | -1.9 ± 0.29 |
| UUCGAGCAAUAUUACGGACG | -1.8 ± 0.18 | -1.42 ± 0.24 |
| UUCGAGCAAUAUUACGGAGC |  | -3.16 ± 0.38 |
| UUCGAGCAAUAUUACGGAGG | -4.27 ± 0.34 | -1.47 ± 0.24 |
| UUCGAGCAAUAUUACGGCGG | -1.3 ± 0.095 | -0.639 ± 0.12 |
| UUCGAGCAAUAUUACGGGUC | -3.03 ± 0.38 | -2.89 ± 0.43 |
| UUCGAGCAAUAUUACGGGUU | -3.21 ± 0.22 | -2.78 ± 0.35 |
| UUCGAGCAAUAUUACGUACG | -3.15 ± 0.38 |  |
| UUCGAGCAAUAUUACGUAUC | -3 ± 0.34 | -0.649 ± 0.23 |
| UUCGAGCAAUAUUACGUAUG | -2.17 ± 0.13 | -2.49 ± 0.19 |
| UUCGAGCAAUAUUACGUCGC | -2.09 ± 0.21 |  |
| UUCGAGCAAUAUUACGUCGU | -3.29 ± 0.33 | -1.24 ± 0.21 |
| UUCGAGCAAUAUUACGUCUU | -2.89 ± 0.31 | -1.69 ± 0.39 |
| UUCGAGCAAUAUUACGUUUC | -3.44 ± 0.35 | -2.37 ± 0.35 |
| UUCUAGCAAUAUUACGAAAA | -1.6 ± 0.14 | -0.631 ± 0.13 |
| UUCUAGCAAUAUUACGAAGG | -2.9 ± 0.19 | -2.38 ± 0.39 |
| UUCUAGCAAUAUUACGACAG | -1.13 ± 0.22 | -1.59 ± 0.32 |
| UUCUAGCAAUAUUACGACCA | -0.559 ± 0.15 | -0.269 ± 0.14 |

| Sequence | self-splicing fitness (ln) (30 °C) | self-splicing fitness (ln) (37 °C) |
| --- | --- | --- |
| UUCUAGCAAUAUUACGAGCG | -0.769 ± 0.066 | -0.94 ± 0.072 |
| UUCUAGCAAUAUUACGAGUC |  | -1.86 ± 0.39 |
| UUCUAGCAAUAUUACGAUAU | -2.27 ± 0.34 | -1.77 ± 0.3 |
| UUCUAGCAAUAUUACGAUCG |  | -2.02 ± 0.28 |
| UUCUAGCAAUAUUACGCAUA | -0.852 ± 0.12 | -0.774 ± 0.14 |
| UUCUAGCAAUAUUACGGAAC | -3.74 ± 0.43 | -1.86 ± 0.3 |
| UUCUAGCAAUAUUACGGACA | -0.456 ± 0.097 | 0.211 ± 0.12 |
| UUCUAGCAAUAUUACGGUGA | -0.462 ± 0.086 | -0.28 ± 0.11 |
| UUCUAGCAAUAUUACGUAUG | -3 ± 0.17 | -1.8 ± 0.17 |
| UUCUAGCAAUAUUACGUGCC | -3.06 ± 0.36 |  |
| UUCUAGCAAUAUUACGUGGU | -4.03 ± 0.34 | -0.962 ± 0.18 |
| UUCUAGCAAUAUUACGUUUA | -1.43 ± 0.16 | -1.45 ± 0.12 |
| UUCUAGCAAUAUUACGUUUC | -2.75 ± 0.39 | -2.47 ± 0.3 |
| UUGAAGCAAUAUUACGAGAA | -1.9 ± 0.17 | -1.7 ± 0.18 |
| UUGAAGCAAUAUUACGAUAA | -0.132 ± 0.23 | 0.686 ± 0.36 |
| UUGAAGCAAUAUUACGCAAA | -0.591 ± 0.13 | -0.121 ± 0.14 |
| UUGAAGCAAUAUUACGCACC | -2.62 ± 0.34 | -1.41 ± 0.4 |
| UUGAAGCAAUAUUACGCCCG | 0.0378 ± 0.14 | 0.251 ± 0.21 |
| UUGAAGCAAUAUUACGCGAU | -1.96 ± 0.34 |  |
| UUGAAGCAAUAUUACGCGCG | 0.0526 ± 0.092 | 0.136 ± 0.12 |
| UUGAAGCAAUAUUACGCGGU | -2.94 ± 0.16 | -2.3 ± 0.19 |
| UUGAAGCAAUAUUACGCUGG | -0.756 ± 0.094 | -0.221 ± 0.15 |
| UUGAAGCAAUAUUACGGCAG | 0.393 ± 0.078 | -0.0313 ± 0.092 |
| UUGAAGCAAUAUUACGGGGG | -2.59 ± 0.17 | -1.9 ± 0.19 |
| UUGAAGCAAUAUUACGUAGG | -1.27 ± 0.11 | -0.153 ± 0.12 |
| UUGAAGCAAUAUUACGUCAU | -1.41 ± 0.056 | -0.306 ± 0.069 |
| UUGAAGCAAUAUUACGUGAU | -2.29 ± 0.11 | -1.3 ± 0.16 |

| Sequence | self-splicing fitness (ln) (30 °C) | self-splicing fitness (ln) (37 °C) |
| --- | --- | --- |
| UUGAAGCAAUAUUACGUGUC | -2.93 ± 0.21 | -2.47 ± 0.24 |
| UUGAAGCAAUAUUACGUGUG | -0.963 ± 0.056 | -0.69 ± 0.072 |
| UUGAAGCAAUAUUACGUUAU | -2.08 ± 0.099 | -0.402 ± 0.1 |
| UUGAAGCAAUAUUACGUUUU | -2.7 ± 0.2 | -2.52 ± 0.3 |
| UUGCAGCAAUAUUACGAAAC | -3.32 ± 0.41 | -1.87 ± 0.45 |
| UUGCAGCAAUAUUACGAAAU | -2.39 ± 0.22 | -2.33 ± 0.39 |
| UUGCAGCAAUAUUACGAAGU | -2.38 ± 0.23 | -1.75 ± 0.36 |
| UUGCAGCAAUAUUACGAAUA | -1.66 ± 0.1 | -0.197 ± 0.13 |
| UUGCAGCAAUAUUACGACAA | -0.619 ± 0.087 | 0.212 ± 0.1 |
| UUGCAGCAAUAUUACGACUG | -2.52 ± 0.19 | -1.72 ± 0.2 |
| UUGCAGCAAUAUUACGAUAA | -0.501 ± 0.11 | 0.0102 ± 0.12 |
| UUGCAGCAAUAUUACGAUUA | -0.176 ± 0.12 | 0.339 ± 0.087 |
| UUGCAGCAAUAUUACGCAAC |  | -2.11 ± 0.22 |
| UUGCAGCAAUAUUACGCAGC | -2.41 ± 0.41 | -1.83 ± 0.3 |
| UUGCAGCAAUAUUACGCCUA | -0.384 ± 0.084 | 0.346 ± 0.11 |
| UUGCAGCAAUAUUACGCCUG | -2.63 ± 0.15 | -1.6 ± 0.19 |
| UUGCAGCAAUAUUACGCGGC |  | -2.28 ± 0.46 |
| UUGCAGCAAUAUUACGCUCA | -0.833 ± 0.18 | -0.278 ± 0.17 |
| UUGCAGCAAUAUUACGGACA | -0.355 ± 0.074 | -0.669 ± 0.091 |
| UUGCAGCAAUAUUACGGCUC | -0.757 ± 0.094 | -0.29 ± 0.14 |
| UUGCAGCAAUAUUACGGCUU | 0.193 ± 0.069 | 0.35 ± 0.095 |
| UUGCAGCAAUAUUACGGGAG | -1.53 ± 0.11 | -1.58 ± 0.13 |
| UUGCAGCAAUAUUACGUGAC | -1.55 ± 0.11 | -0.799 ± 0.13 |
| UUGCAGCAAUAUUACGUGGC |  | -2.93 ± 0.32 |
| UUGCAGCAAUAUUACGUUAA | -1.55 ± 0.1 | -0.515 ± 0.089 |
| UUGGAGCAAUAUUACGAGCG | -2.64 ± 0.3 | -0.508 ± 0.32 |
